Data published in article PMC5748838, “SUMO chain formation relies on the amino-terminal region of SUMO-conjugating enzyme and has dedicated substrates in plants” (Biochemical Journal, 2017).
Substitutions are numbered along the chain they refer to.

Key:
Assay in all cases: ITC; SCE at 60 µM in the cell (300 µl loaded), SUMO1-Flag-His at 600 µM in the syringe; 20 injections; 25°C; 20 mM Tris, 5 mM MgCl2, pH 7.4; MicroCal ITC 200
Conditions in all cases: both partners purified
[1] = target: T1, SCE K28R (Arabidopsis, UniProt Q42551 1-160, K28R)
T1 construct: SUMO-conjugating enzyme SCE1, Arabidopsis thaliana, AT3G57870, with K28R; source: MonoS ion exchange for ITC
T1 sequence (looked up): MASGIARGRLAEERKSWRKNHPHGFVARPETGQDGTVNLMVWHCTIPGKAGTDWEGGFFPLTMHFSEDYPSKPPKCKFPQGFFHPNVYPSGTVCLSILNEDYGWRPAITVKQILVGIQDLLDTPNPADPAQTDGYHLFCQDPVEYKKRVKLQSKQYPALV

[2] = target: T2, SCE K15R (Arabidopsis, UniProt Q42551 1-160, K15R)
T2 construct: SUMO-conjugating enzyme SCE1, Arabidopsis thaliana, AT3G57870, with K15R; also called SCE1 K15R; source: MonoS ion exchange for ITC
T2 sequence (looked up): T1 sequence (looked up) with K15R, R28K

[3] = target: T3, Arabidopsis SUMO-conjugating enzyme SCE1, wild type (Arabidopsis, UniProt Q42551 1-160)
T3 construct: SUMO-conjugating enzyme SCE1, Arabidopsis thaliana, AT3G57870; also called SCE WT; WT SCE; source: MonoS ion exchange for ITC
T3 sequence (looked up): T1 sequence (looked up) with R28K

- Kd [1]: 270 ± 330 µM
- Kd [2]: 33 ± 17 µM
- Kd [3]: 710 ± 230 µM
B1: SUMO1-Flag-His (natural protein, Arabidopsis, UniProt P55852 1-93, looked up)
chain: MSANQEEDKKPGDGGAHINLKVKGQDGNEVFFRIKRSTQLKKLMNAYCDRQSVDMNSIAFLFDGRRLRAEQTPDELDMEDGDEIDAMLHQTGG
notes: SUMO1 (small ubiquitin-related modifier 1), Arabidopsis; The SUMO preparations are conjugated in vitro without a protease, so the processed form ending in Gly-Gly is surmised; also called N-terminally tagged SUMO (Flag-His); source: purified (Ni2+ resin, then MonoQ ion exchange for ITC); not shown: Flag, N-terminal, kept; His, N-terminal, kept
